assay: yeast display, Sf9 membrane polyspecificity reagent, FACS + sequencing; frameworks hold sequencing errors
Outline: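 After 36–48 hours of galactose induction, yeast (Saccharomyces cerevisiae BJ5465) displaying a synthetic nanobody library were stained at 4 °C for 1 hour with 10% biotinylated, detergent-solubilized Sf9 membrane reagent. Streptavidin microbeads enriched the stained cells before FACS sorting into low and high (top ~1%) gates on anti-HA and streptavidin fluorescence. Each clone's polyreactivity label reflects its gate of origin.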

Sequence | polyreactivity (PSR sort gate)
QVQLVESAGGLVQAGGSLRLSCAASGGTFLQYAMGSYRQAPGKERELVATITLIGDSTYYADSVKGRFTISRDNAKNTVYLQMNSLIPEDTAVYYCADRPVTSYAYGSWGQGTQVTVSS | low polyreactivity
QVQLVESAGGLVQAGGSLRLSCAASGIIFDDNAKGWYRQAPGKERELVAAISGRGGSTYYADSVKGRFTISRDNAKNTVYLQMNSLKPEDTAVYYCAASTVRRGTAPYSGGGDYWGQGTQVTVSS | high polyreactivity
QVQLVESAGGLVQAGGSLRLSCAASGIIFEYYTRGWYRQAPGKERELVASITYDGDSTYYADSVKGRFTISRDNAKNTVYLQMNSLKPEDTAVYYCAADYYYVYSSFGHYYWGQGTQVTVSS | low polyreactivity
QVQLVESAGGLVQAGGSLRLSCAASGIIFPAYAMGWYRQAPGKERELVAGISGRGGSTYYADSVKGRFTISRDNAKNTVYLQMNSLKPEDTAVYYCAAYAGGPYKFDYWGQGTQVTVSS | high polyreactivity
QVQLVESAGGLVQAGGSLRLSCAASGITFTYYAMGWYRQAPGKERELVATISYGGGITYYADSVKGRFTISRDNAKNTVYLQMNSLKPEDTAVYYCNADGATVWSLEYWGQGTQVTVSS | low polyreactivity
QVQLVESAGGLVQAGGSLRLSCAASGLTFTTYAMGWYRQAPGKERELVAAISRRGSRTYYADSVKGRFTISRDNAKNTVYLQMNSLKPEDTAVYYCNALTGSFKTYSFDYWGQGTQVTVSS | high polyreactivity
QVQLVESAGGLVQAGGSLRLSCAASGNTFHSNALGWYRQAPGKERELVAAITPSDGDTYYADSVKGRFTISRDNAKNTVYLQMNSLKPEDTAVYYCAAEDDPGEYEYWGQGTQVTESS | low polyreactivity
QVQLVESAGGLVQAGGSLRLSCAASGRIFGINSLGWYRQAPGKERELDAAISSGGSTYYADSVKGRFTISRDNAKYTVYILMNSEKPVDSAVYYCASDYDSSVCHDRGFWRDYWGQGNQVTVSS | low polyreactivity
QVQLVESAGGLVQAGGSLRLSCAASGRIFGYNAMGWYRQAPGKERELVAVITYSGGSTYYADSVKGRFTISRDNAKNTVYLQMNSLKPEDTAVYYCAKATTWGYFRVWSTRYYYWGQGTQVTVSS | low polyreactivity
QVQLVESAGGLVQAGGSLRLSCAASGRIFPFYAMGWYRQAPGKERELVAAISWNGGSTFYADSVKGRFTISRDNAKNTVYLQMNSLKPEDTAVYYCNADCRPAYTYDYWGQGTQVTVSS | low polyreactivity
QVQLVESAGGLVQAGGSLRLSCAASGRIFQFYAMGWYRQAPGKERELVATITRGGSTYYADSVKGRFTISRDNAKNTVYLQMNSLKPEDTAVYYCAAGFAGKYYWGQGTQVTVSS | high polyreactivity
QVQLVESAGGLVQAGGSLRLSCAASGRIFSPYAMGWYRQAPGKERELVAAIDWDGGGTYYADSVKGRFTISRDNAKNTVYLQMNSLKPEDTAVYYCAAETDLANGTSPSDYWGQGTQVTVSS | low polyreactivity
QVQLVESAGGLVQAGGSLRLSCAASGRIYGQNAMGWYRQAPGKERELVAAITGSGGRTYYADSVKGRFTISRDNAKNTVYLQMNSLKPEESAVYYSAVRVTSYYRTMDYWGQGTQVTVSS | low polyreactivity
QVQLVESAGGLVQAGGSLRLSCAASGRTGVNAMGWYRQAPGKERGLVAAINTSVGRTYYADSVKGRFTISRDNAKNTVYLQMNSLKPEDTAVYYCNTDRLGAARYDYWGQGTQVTVSS | low polyreactivity
QVQLVESAGGLVQAGGSLRLSCAASGSIFGSNAMGWYRQAPGKERELVASITSSGGSTHYADSVKGRFTISRDNAKNTVYLQMNSLKPEDTAVSYCATRAYGYYRWLYDYWGQGTQVTGSS | low polyreactivity
QVQLVESAGGLVQAGGSLRLSCAASGSIINRYAMGWYRQAPGKERELVAAITQSGGRTYYADSVKGRFTISRDNAKNTVYLQMNRLKPDDTAGYYCNAFRWYLYDYWGQGTLVTVSS | high polyreactivity
QVQLVESAGGLVQAGGSLRLSCAASGSILVLNAMGWSRQAPGKERELVAAITSRGTRTYYADSVKGRFTISRDNAKNTVYLQLNSLNPEDTAVYYCAAKAGYRYGSLAYYKYDYWGQGTQVTLSS | high polyreactivity
QVQLVESAGGLVQAGGSLRLSCAASGSTFANYAMGWYRQAPGKERELVAGISWRGGRTYYADSVKGRFTISRDNAKNTVYLQMNSLKPEDTAVYYSAVVHQTFTGDYWGQGTQVTVSS | high polyreactivity
QVQLVESAGGLVQAGGSLRLSCAASGSTFFTYTMGWYRQAPGKERELVAAISSGGSTYYADSVKGRFTISRDNAKNTVYLQMNSLKPEDTAVYYLLRGQGTQVTVSS | low polyreactivity
QVQLVESAGGLVQAGGSLRLSCAASGSTFVTYAMGWYRQAPGKERELVAAISSTGTGRTYYADSVKGRFTISRDNAKNTVYLQMNSLKPEDTAVYSCAADATSPLTWFDYWGQGTQVTVSS | low polyreactivity
QVQLVESAGGLVQAGGSLRLSCAASGSTFWIYTMGWYRQAPGKERELVAAITWSGGRTYYADSVKGRFTISRDNAKNTVYLQMNSLKPEDTAVYYCNADVYSYRPSTIQRYVLFDYWGQGTQVTVSS | low polyreactivity
QVQLVESAGGLVQAGGSLRLSCAASGSTLRAYAMGWYRQAPGKERELVAAISGSGDSTYYADSVKGRFTISRDNAKNTVYLQMNSLKPEDTAVYYCNKGLFSTGNIPYYLIVYLEYNYWGQGTQVTVSS | low polyreactivity

Sequence | polyreactivity (PSR sort gate)
QVQLVESAGGLVQAGGSLRLSCAASGYIFQYYAMGWYRQAPGKERELVAAITSGGSTYYADSVKGRFTISRDNAKNTVYLQMNSLKPEDTAVYYCAAHLLHYRGDYWGQGTQVTVSS | high polyreactivity
QVQLVESAGGLVQAGGSLRLSCAASGYIFSYNAMGGYRQAPGKERELVAAITASGGGTYYADSVKGRFTISRDNAKNTVYLHMNSLKQEDTAVYYCAADLSWSRVVFGDYDYWGQGTQVTVSS | low polyreactivity
QVQLVESAGGLVQAGGSLRLSCAASGYTLYLNAMGWYRQAPGKERELVARISGGGSTNYADSVKGRFTISRDNAKNTVYLQMNSLKPEDTAVYYCAASIFAYGYRSFQLDYWGQGTQVTVSS | low polyreactivity
QVQLVESAGGLVQAGGSLRLSCAAYGRIFAYNAMGWYRQSPGKERELVAAITWSGDSTYYADSVKGRFTISRDNAKNTVYLQMNSLKPEDTAVYYCATDPLFITSTRWKYDYWGQGTQVTVSS | low polyreactivity
QVQLVESAGGLVQAGGSLRLSCADSGSTFSPYAMGWYIDAPGKERELVAAIRSGRTSYADSVKGRFTISRDNAKNTVYLQMNSLKPEDTAVYYCAKASRVGYYWGQGTQVTESS | high polyreactivity
QVQLVESAGGLVQAGGSLRLSCASSGSTLPYNAMGWYRQAPGKESELVAAISKSGGRTYYADSVKGRFTISRDNAKNSVYLQMNSLKPEDTAVYYCNAGPYLGGGGSSRYLWGQGTQVTVSS | high polyreactivity
QVQLVESAGGLVQAGGSLRLSCDASGRIIRGNAMGWYRQAPGKEREMVAAINRSGGSTYYADSVKGRFTISRDNAKNTVYLQMKSLKQEDTAVYYCIAYPASRKTGWSSGYYYWGQGTQVTVSS | high polyreactivity
QVQLVESAGGLVQAGGSLRLSCDASGSIFRYYDMGWYRQAPGKERELVAAITYYGGGTYYADSVKGRFTISRDNAKNTVYLQMNSLKAEDTAVYYCAVRRVGSIYMDRYRYVVADYVYWGQGTQVTVSS | low polyreactivity
QVQLVESAGGLVQAGGSLRLSCDASGSTIDEYDMGWYRQAPGKERELVAAISDRGSRTRYADSVKGRFTISRDNAKNTVYLQLNSLKPEDTAVDYCNADIYVNYWDFDYWGQGTQVTVSS | high polyreactivity
QVQLVESAGGLVQAGGSLRLSSAASGYNFCSYAMGWYRQAPGKEREFVATISASGGRTYYADSVKGRFTISRDNAKNTVYLQMNSMKPEDTAVYYCNADPGNHAYWYYVEFYYYTYDYWGQGTQVTVSS | low polyreactivity
QVQLVESAGGLVQAGGSLRLTCAASGRTFTFNTMGWYRQAPGKERELVAAIDGDGTTNYADSVKGRFTISRDNAKNTVYLQMNSLKPEDTAVYYCAADFLYSFWYEPTFDYWGQGTQVTVSS | low polyreactivity
QVQLVESAGGLVQAGGSLRVSCAASGSTFSRYTMGWYRQAPGKERELVAAIRWSSGRTYYADSVKGRFTISRDNAKNTVYLQMNSLKPEDTAVYYCAALFPRGQADYAYWGQGTPVTVSS | high polyreactivity
QVQLVESAGGLVQAGGSLSLSCAASGRTFGQYPMGWYRKAPGKERELVAAITRSAGSTYYADSVKGRFTISRDNAKNNVYLQMNSLKPEDTAVSYCAKRFYWSVDGYRTAKYYYWGQGTQVTVSS | high polyreactivity
QVQLVESAGGLVQAGGSLSLSCAASGYTYWYAMGWYRQAPGKERELVAAIDSGVTRTYYADSVKGRFTISRDNAKNTVYLQMNSLKPEDTAVYYCAAGLSTDYGYWGQGTQVTVSS | low polyreactivity
QVQLVESAGGLVQAGVILRLSCPASGSTIEYYAMGWYRQAPGKERELVATISIDGRTNYADSVKGRFTISRDNAKNTVYLQMNSLNPEDTAVYYCAARPYWRHRYDYCGQGTQVTVSS | low polyreactivity
QVQLVESAGGLVQEGGSLRLICAASARTIVIYSMGWYRQAPGKEREFVAAISRSGGSTYYADSVKGRFTISRDNQKNTVYLQMNSLQPVDTAVYYCNTRTPYWFKSDYWGQGTQVTVSS | low polyreactivity
QVQLVESAGGLVQEGGSLRLICAASGSIFGGYAMGWYRQAPGKERELVAAISWSSSTTYYADSVKGRFTISRDHAMNTVYLQLNSLKPEDTAVYDCATGIYPQTSDYDYWGQGTQVTVSS | low polyreactivity
QVQLVESAGGLVQEGGSLRLSCAASGRIFGPYALGWYRQAPGKERELVAAISFSGSGTYYAASVKGRFTISRDNANNTVYLQIYSLKPEDNAVYYCAADGVYIDSNNRNTSDYWGQGTQVTVSS | low polyreactivity
QVQLVESAVGLVQAGGSLPLSCDASSSTIYPYAMGWYRQAPGKERELVAAISSGGSTSYADSVKGRFTISRDNAKNTVYLQMNSLKPEDTAVYYCNADPLQCKLWTYFFGFPGYYWGQGTQVTVSS | low polyreactivity
QVQLVESCGGKVQAGGSLRLSCAASGRIFWYYAMVWYRQAPGKERELVAAIDRTRVRTSYADSVKGRFTISRDNAKNTVYLQMNSLKPEDTAVYYCAADLVYGHYVTYWNSYVYWGQGTEVTVSS | low polyreactivity
QVQLVESCGGLVQAGCSLRLSCAASGSIFDGNAMGWYRQAPGKERDLVAVISSRGTRTYYADSVKGRFTISRDNAKITVYLQMNSLKPEDTAVYYFNTRTSDLNGSGDYWGQGTQVTVSS | high polyreactivity
